Results on one protein are retold here after FireProtDB (doi:10.1021/bi701495v).

The conditions of the series: Ajellomyces capsulatus (strain G186AR / H82 / ATCC MYA-2454 / RMSCC 2432); pH 6.5; 25 °C; Urea; CD; KH2PO4 0.01 M; KCl 0.1 M; reversible: Yes; whole UniProt chain shown.

B1: Calcium-binding protein wild type, O42720 (protein)
chain: MLFSKVIAPAFILLGAASAAPGGLAPENASKRDQPSVGDAFDKYNEAVRVFTQLSSAANCDWAACLSSLSASSAACIAAVGELGLDVPLDLACAATATSSATEACKGCLW
For the protein B1, the denaturant m value came out at 0.84 kcal/mol/M, the “denaturant midpoint (higher = more stable)” value was 3.4 M and the unfolding free energy came to 2.9 kcal/mol.
